Source: US20220162649A1, “NOVEL NUCLEIC ACID MODIFIERS” (THE BROAD INSTITUTE, INC., priority 2019, published 2022)
Positions count from the first letter of the chain named. In names and notes the source's numbering stands.

B1: SaCas9 T787A: SaCas9 phosphate lock loop mutant (protein, UniProt J7RUA5 1-1053, looked up, variant T787A)
CRISPR-associated …: MKRNYILGLDIGITSVGYGIIDYETRDVIDAGVRLFKEANVENNEGRRSKRGARRLKRRRRHRIQRVKKLLFDYNLLTDHSELSGINPYEARVKGLSQKLSEEEFSAALLHLAKRRGVHNVNEVEEDTGNELSTKEQISRNSKALEEKYVAELQLERLKKDGEVRGSINRFKTSDYVKEAKQLLKVQKAYHQLDQSFIDTYIDLLETRRTYYEGPGEGSPFGWKDIKEWYEMLMGHCTYFPEELRSVKYAYNADLYNALNDLNNLVITRDENEKLEYYEKFQIIENVFKQKKKPTLKQIAKEILVNEEDIKGYRVTSTGKPEFTNLKVYHDIKDITARKEIIENAELLDQIAKILTIYQSSEDIQEELTNLNSELTQEEIEQISNLKGYTGTHNLSLKAINLILDELWHTNDNQIAIFNRLKLVPKKVDLSQQKEIPTTLVDDFILSPVVKRSFIQSIKVINAIIKKYGLPNDIIIELAREKNSKDAQKMINEMQKRNRQTNERIEEIIRTTGKENAKYLIEKIKLHDMQEGKCLYSLEAIPLEDLLNNPFNYEVDHIIPRSVSFDNSFNNKVLVKQEENSKKGNRTPFQYLSSSDSKISYETFKKHILNLAKGKGRISKTKKEYLLEERDINRFSVQKDFINRNLVDTRYATRGLMNLLRSYFRVNNLDVKVKSINGGFTSFLRRKWKFKKERNKGYKHHAEDALIIANADFIFKEWKKLDKAKKVMENQMFEEKQAESMPEIETEQEYKEIFITPHQIKHIKDFKDYKYSHRVDKKPNRELINDALYSTRKDDKGNTLIVNNLNGLYDKDNDKLKKLINKSPEKLLMYHHDPQTYQKLKLIMEQYGDEKNPLYKYYEETGNYLTKYSKKDNGPVIKKIKYYGNKLNAHLDITDDYPNSRNKVVKLSLKPYRFDVYLDNGVYKFVTVKNLDVIKKENYYEVNSKCYEEAKKLKKISNQAEFIASFYNNDLIKINGELYRVIGVNNDLLNRIEVNMIDITYREYLENMNDKRPPRIIKTIASKTQSIKKYSTDILGNLYEVKSKKHPQIIKKG
B2: E477A: SaCas9 RuvC catalytic residue mutant (protein, UniProt J7RUA5 1-1053, looked up, variant E477A)
CRISPR-associated …: B1 CRISPR-associated … with E477A, A787T
B3: N580A: SaCas9 HNH catalytic residue mutant (protein, UniProt J7RUA5 1-1053, looked up, variant N580A)
CRISPR-associated …: B1 CRISPR-associated … with N580A, A787T
B4: H557A: SaCas9 HNH catalytic residue mutant (protein, UniProt J7RUA5 1-1053, looked up, variant H557A)
CRISPR-associated …: B1 CRISPR-associated … with H557A, A787T
B5: D704A: SaCas9 RuvC catalytic residue mutant (protein, UniProt J7RUA5 1-1053, looked up, variant D704A)
CRISPR-associated …: B1 CRISPR-associated … with D704A, A787T
B6: D556A: SaCas9 HNH catalytic residue mutant (protein, UniProt J7RUA5 1-1053, looked up, variant D556A)
CRISPR-associated …: B1 CRISPR-associated … with D556A, A787T
B7: D10A: SaCas9 RuvC catalytic residue mutant (protein, UniProt J7RUA5 1-1053, looked up, variant D10A)
CRISPR-associated …: B1 CRISPR-associated … with D10A, A787T
B8: H701A: SaCas9 RuvC catalytic residue mutant (protein, UniProt J7RUA5 1-1053, looked up, variant H701A)
CRISPR-associated …: B1 CRISPR-associated … with H701A, A787T

Test system: NHEJ pathway
Assay: HiBiT assay of HDR enhancement by small-molecule NHEJ pathway inhibitors
Assay type: cell-based
Conditions: not given
With O=c1cc(N2CCOCC2)oc2c(-c3cccc4c3sc3ccccc34)cccc12 [KU-57788] the “HDR enhancement in the HiBiT assay” value was “enhanced HDR enhancement”.
For CCN1CCN(CC(=O)Nc2ccc(-c3cccc4c(=O)cc(N5CCOCC5)oc34)c3sc4ccccc4c23)CC1 [KU-0060648], the “HDR enhancement in the HiBiT assay” value was “enhanced HDR enhancement”.

Test system: target DNA
Assay: not given
Conditions: SaCas9 mutants; cited from earlier work
For B1, the “DNA cleavage activity, in words” value is given as “reduced DNA cleavage activity”.
For B2, the “DNA cleavage activity, in words” value is listed as “almost no DNA cleavage activities”.
For B3, the “DNA cleavage activity, in words” value is listed as “almost no DNA cleavage activities”.
For B4, the “DNA cleavage activity, in words” value is listed as “almost no DNA cleavage activities”.
In the case of B5, the “DNA cleavage activity, in words” value is listed as “almost no DNA cleavage activities”.
In the case of B6, the “DNA cleavage activity, in words” value is listed as “almost no DNA cleavage activities”.
In the case of B7, the “DNA cleavage activity, in words” value is given as “almost no DNA cleavage activities”.
For B8, the “DNA cleavage activity, in words” value is given as “almost no DNA cleavage activities”.
